Measured values taken from the RNAGym collection of RNA variant scans (doi:10.1073/pnas.2313332121).
Fewer inactive variants are shown than the library holds.

B1: TPR 5TU (parent)
chain: GGAUCUUCUCGAUCUAACAAAAAAGACAAAUCUGCCACAAAGCUUGAGAGCAUCUUCGGAUGCAGAGGCGGCAGCCUUCGGUGGCGCGAUAGCGCCAACGUUCUCAACUAUGACACGCAAAACGCGUGCUCCGUUGAAUGGAGUUUAUCAUG

Variants of: B1
Assay: polymerase ribozyme fitness, log enrichment relative to wild type (log ratio); higher = more active; in vitro selection for triplet polymerase activity
Summary of the method: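 Both subunits of a heterodimeric triplet polymerase ribozyme were given their own mutant library, built by PCR and transcribed. Each library was annealed with a biotinylated primer, the partner subunit and triplets, incubated frozen at −7 °C, and its extended constructs gel-excised, captured on streptavidin beads and amplified by RT-PCR, all in one round done in triplicate. Fitness is the logarithm of genotype enrichment relative to wild-type enrichment, with replicates averaged by inverse-variance weighting. That logarithm is base 2, and Illumina-sequenced genotypes needed ≥10 input reads and ≥1 read per output.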

Variant	polymerase ribozyme fitness (log ratio)
A40G A60C C105G A138C A147U	≤ -4.2
A41G G74C C75U C76A A91C G92U U134A G141C	≤ -4.2
C38U C85U	-0.884
A40C G42A A52U G81C G84U A97C C118U	≤ -4.2
A41C U55C U56A C75A G83C C131A U135C	≤ -4.2
A39U G50U U139G	-2.97
A41C A49C G92A A106C	≤ -4.2
A40C U55A	0.494
A40C A60G G62U G68A A97U G141A A142G	≤ -4.2
A39U U127C	-4
A40U U90G C118G G133C U148G	≤ -4.2
A40G G83U G92A C99G A107U	≤ -4.2
A39C C96U	-2.7
A39G C54G A106U	≤ -4.2
A41C G50A U55G U56A G65U G68A U102A G140U	≤ -4.2
A40U G48C U53A U144G	-2.19
A40C C99U A137U U146A	-4.14
A39U U56A G62C C85A C95G U101A C123G G143C	≤ -4.2
A41C U53A G58A C63U G94A A107G	≤ -4.2
A40C C76U G86A A115C U135A A142G	-3.94
A40G U56A G86A	-3.13
A40U G46A C85A A115G A120G	-4.09
A41G A49C U55C C69A C85U C108U	≤ -4.2
C38U G59U C79G	-3.85

Variant	polymerase ribozyme fitness (log ratio)
A40G U53A C54U U82G C87A A89G A137U A138U U145A	≤ -4.2
A41G C43A G59C	≤ -4.2
A39G G48A G59A C96U U102G G128C G141A U144G	≤ -4.2
A40C G62U A97G C116G A122U	-1.6
A39C C63A A119C	-4.05
A40C U45A G48A A49C U55A G62C U77A C118A U134C A142G	≤ -4.2
A39C G80C C85U A89G C116G	≤ -4.2
A39C G48C G59U A60U A66G G71A C96U U101G U151A	≤ -4.2
A40C A41C C43U U55G C72U C96U A120U G124C	≤ -4.2
A40G G59A U78A G94A C108U	≤ -4.2
A39U G59C U146G A150G	-3.66
A39C U78A G84U U90C	≤ -4.2
A40C G83U A119G	-1.55
A41G C57A	0.0695
A39U A138C A150G	-4.1
A41G A66C A89C G92U A97U G124U	≤ -4.2
A39U G86A U102G C103G A106C	≤ -4.2
C38U C87U C103U	-0.308
A39U C54U A60U C75G C79A U90A	≤ -4.2
C38U U101A C103G A121U U144G	-3.85
A41C A52C	-1.97
A41G G84U C116U G136U	-3.6
A40G G84U A89U U104G	≤ -4.2
A40C G92U U135G	-2.96

Variant	polymerase ribozyme fitness (log ratio)
A40G C51A G83A C96U U101G	≤ -4.2
A41C A47C G59A A60G C85A U127G A137G	≤ -4.2
A41C G92U U145A A150C	-2.83
A41C A150U	0.683
A41C A66U U135A	≤ -4.2
C38U G81U C108A U139G	≤ -4.2
A41C G42A A49G G88C U135A	≤ -4.2
A41C A49C U77C G86C C96U U101G C118G	≤ -4.2
A39G G42A G81U C87A G94U	≤ -4.2
A39G C54U G74A G88A U90A A137G	≤ -4.2
A41C C43U A97G C108U G140U	≤ -4.2
A39U C99U U146G	-2.56
A39G U56A G94U A120U G141C	-3.09
A39G U56G A66U G86U A107C	-3.99
A40G G71U G86U	≤ -4.2
A41G G70A C93U A98U	-3.95
A39U A47G U78A A97U	≤ -4.2
C38U G58C G80A C95A C114G	-3.62
A40G G58A	-0.952
A40G A41C	-1.36
A40C C69U A91U C96A A119G U134A A142U	≤ -4.2
A39U C96U	-2.1
A40C C76A	-2.59
A41C U56A G83U U127C G152A	-4.07

Variant	polymerase ribozyme fitness (log ratio)
A39C A66C G86U	≤ -4.2
A40U G117C	-0.102
A40G U61C G92U U145G	≤ -4.2
A41C C93U	-1.61
A40G G86U A120G	-3.99
C38U U90C U109C C116A C125G U146G	≤ -4.2
A39U C54U C76A A91C U139G	≤ -4.2
A40G C57G G58A G117C A119U	-1.96
A41C C75U G92C A150U	-2.91
A40C A60U G81C A138G C149A	≤ -4.2
A39U	-1.9
A39C	-1.87
A39G	-1.53
A41C U82A C125A	-0.821
A40C C87G G94U C95G C118G	≤ -4.2
A41C G62A G65C A89C C95G U151A	≤ -4.2
A41C U151G	-3.63
A41C U53A C79A C108U A147C	≤ -4.2
A41C G58C G59C A113C U145A	-4.1
A40C A106U A138G	≤ -4.2
A40C A47U C85G A89G U148G	≤ -4.2
A40C U61A	-1.94
A41G G92A C99U G126C C149A	≤ -4.2
A40U C54G C118A	-1.63

Variant	polymerase ribozyme fitness (log ratio)
A40G G71C G74U C93U A98G	≤ -4.2
C38U G62C	-2.41
A39U U55G G67C G86U A115C	≤ -4.2
C38U U61A	-0.395
A39C A49U G67A A121U	≤ -4.2
A39U A49U	-4.19
A41C G67A	-3.93
A39U A110G U148G	-4
A41C C79U C95U	-3.78
A39C G50A G86A G94U G133A	≤ -4.2
A41G G50C	-1.47
A41C G67C C85A C131U A137G	≤ -4.2
A39C C85U	-2.48
A39C G86A G152U	≤ -4.2
A40U C57A A73U C95U U135G C149G	≤ -4.2
A39G U55A A91C C108A U144C	≤ -4.2
A40C G42C G80U	≤ -4.2
C38U U56A A120G G126U U145C U146G	-3.34
C38U U45G G68A G81U C87G A98G	≤ -4.2
A40U C93A U148A	≤ -4.2
A40G A98G A113C	≤ -4.2
C38U U56A G68A C95A	≤ -4.2
A39G G58A U145G	-1.12
A39U A73G	-2.4

Variant	polymerase ribozyme fitness (log ratio)
A41G G86C	-3.28
A39C G83U A138C	-4.18
A40U A60U G70C C76U C96A	≤ -4.2
A40U G126C	-0.388
A41C G50C G84A A119G	-3.83
A40C U44A A49C G65A C75G G84U C118U G128U U130C	≤ -4.2
A41C G50A A52G A120C	-2.96
A39G A60C G84A C87G C95G C118G U145G	≤ -4.2
A41G A52G C69U C93U G94C U146C	-2.71
A40C A47U A60U	-1.07
C38U C63U	0.178
A40C G48A	-1.28
A41C G86U U90A C129A U130C G140U	≤ -4.2
A40U A91G C116U A121U	-2.66
A40U U45G	-0.54
A40U A64G C75U A97G	≤ -4.2
A40G G48A C125A	≤ -4.2
A39C A107C G141C	≤ -4.2
C38U U44C C54U G94A C131U U139A U144C	≤ -4.2
A40C C85U G124U	-0.182
A39G U145A	-1.85
A39G U56A G58U G141A	-1.28
A40U C96U C118U	-0.191
C38U U55A C69G A115G A137G A142G	≤ -4.2

Variant	polymerase ribozyme fitness (log ratio)
A41G C57U U109G A122U	-2.07
A40G G46U G84U C87U A97U U144A	≤ -4.2
A40U G92U A119G	-0.619
A39C C108U	-3.8
C38U G83A C99G	-3.15
A41C G84A U109G	-3.33
A41G A60U A121C U144A	-1.13
A40C A52U U111C A119U U139G U151G	≤ -4.2
A39C G88C C108G	≤ -4.2
A40C C57G C85A U102A	≤ -4.2
A40U C51G	-1.26
A40U C51A	-0.707
A41C C85U G112C	-3.5
A40C G59A C85A A89C	-2.83
A39U A49U G59C C132U U148A	≤ -4.2
A40G C85G	-3.63
A39U G80U	-3.44
A40G G67A G94A G100A A107U	≤ -4.2
A40C C51G U61A C95G	≤ -4.2
A41C U44G G46C G84C C123G G128A U145A	≤ -4.2
A40G C95U	-2.52
A39U A60U G84U	-3.96
A40C G50C G80C A97U U134A U145G	≤ -4.2
